Measured values as given in the nanobody polyreactivity screen of Harvey et al. (2022).

Experiment: yeast display, Sf9 membrane polyspecificity reagent, FACS + sequencing; frameworks hold sequencing errors
Method in brief: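 In a synthetic yeast display library (Saccharomyces cerevisiae BJ5465), nanobody expression was induced with galactose for 36–48 hours. FACS gates were set low and high (top ~1%) using anti-HA fluorescence for expression and streptavidin fluorescence for binding of the Sf9 membrane reagent. Each polyreactivity label is drawn from the gate of origin.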

With “QVQLVESGGGLVQAGGSLRLSCAASGFTFPGNAMGWYRQAPGKEREFVAAITRSSGSTSYADSVKGRFTISRDNAKNTVYLQMNSLKPDDTAVYRDYWGLGTQVTVSS” the “polyreactivity (PSR sort gate)” value was “low polyreactivity”.

For “QVQLVESGGGLVQAGGSLRLSCAASGRIFQRYAMGWYRQSPGKERELVAGITSSGGSTYYADSVKGRFTISRDNAKNTVYLQMNSLKPEDTAVSYCNAGGELCYYGYRAGCTTRSYDYWGQGTLVTVSS”, the “polyreactivity (PSR sort gate)” value was “low polyreactivity”.

In the case of “QVQIVESGGGLVQAGGSLRLICAASGSTFGLNAMGWYRQAPGKERELVAAITRSDITNYADSVKGRFTISRDNAKNTVYLKLNSLKPEDTAVYYCNKTPDRHRRYFGYGYWGQGTLVTVSS”, the “polyreactivity (PSR sort gate)” value is reported as “low polyreactivity”.

For “QVQLVESGGGLVQAGGSLRLSCAASGSTFIFYSMGCYRQAPGKERELVASITSSSGPTYYADSVKGRFTISRDNAKNTVYLQMNSLKPEDTAVYYCAKRPIRYYHLLRGNYWGQGTQVTVSS”, the “polyreactivity (PSR sort gate)” value was “low polyreactivity”.

With “QVQLVESGGGLVQAGGSLRLSCAASGFIFRYYAMGWYRQAPGKERELVATISSGGGTHYADSVKGRFTISRDNAKNTVYLQMNCLKPEDTAVYYCNKVSYRRRSVLLHYDYWGQGTQVTVSS” the “polyreactivity (PSR sort gate)” value was “high polyreactivity”.

With “QVQLVESGGGLVQAGGILRLSCAASGSTLGYYAMGWYRQAPGKERELVAAISWSGGRTYYADSVKGRFTISRDNAKNTVYLQMNSLKQEDTAFYYCNALNRTHYTGSDFYSWGQGTQVTVSS” the “polyreactivity (PSR sort gate)” value was “high polyreactivity”.

In the case of “QVQLVESGGGLVQAGGSLRLSCAASGSIFYFYDMGWYRQAPGKERELVAAISLDDGGTYYADSVKGRFTISRDNAKNTVYLQMNSLKPEDTAVYYCAADYYYWYQIYDYWGQGTQVTVSS”, the “polyreactivity (PSR sort gate)” value is reported as “high polyreactivity”.

With “QGQLVETGGGLGQAGGSLRLSCAASGIIFYYYAMGWYRQAPGKERELVAAITGTGSRTYYADSVKGRFTISRDNAKNTVYIQMNSLKPEDTAVYYCYARSFATCSKVPARGYWGQGTQVTVSS” the “polyreactivity (PSR sort gate)” value was “high polyreactivity”.

With “QVQLVESGGGLVQAGGSLRLSCAASGRIFEDYMVWYRHAPGKDRELVAAIRWSGGGTYYADSVKGRFTISRDNAKNTVYLQMTSLKPEDTAVYYCATPGTGSVEVYGYWGQGTQVTVSS” the “polyreactivity (PSR sort gate)” value was “low polyreactivity”.

With “QVQLVESGGGLVQEGGSLRLSCAASGRIFPYYAMGWYRQAPGKERELVATITSGGSTYYADSVKGRFTISRDNAKNTVYLQMNSLKPEDTAVYYCAARYPSIYYYRYDYWGQGTQVTVSS” the “polyreactivity (PSR sort gate)” value was “high polyreactivity”.

With “QVQLVESGGGLVQAGGSLRLSCAASGSTFTYYAMGWYRQATGKETELVAAINIGGGGTYYADSVKGRFTISRDNAKNTVYLQMKSLKPEYTAVYYCATDIYFENGFGYWGQGTQVTVSS” the “polyreactivity (PSR sort gate)” value was “low polyreactivity”.

For “QVQLVESGGGLVQAGGSLRLSCAASGRTFTYNVMGWYRQAPGKERELVAAITSGGSTYYADSVKGRFTISRDNAKNTVYLQMNSLKPEDTAVYYGAARGYSYKWDNRYDYWGQGTQVTVSS”, the “polyreactivity (PSR sort gate)” value was “high polyreactivity”.

In the case of “QVQLVESGGGLVQAGGSLRLSCAASGSIFYENNMGWYRQAPGKEREFVAAISRSGGSTYYADSVKRRFTISRDNAKNTVYLQLNSLKPEDTAVYYCAARSRPGYAVYYWGQGTQVTVSS”, the “polyreactivity (PSR sort gate)” value is reported as “high polyreactivity”.

With “QGQLVESGGGLVQARGSLRLSCAASGRIFMTYAMAWYIQAPGKERELVAAIRSPSGTTYYADSVKGRFTISRDNAKNTVYLQMNSLKPEDTAVYYCAAGGKYSSYYWGQGTQVTVSS” the “polyreactivity (PSR sort gate)” value was “high polyreactivity”.

With “QDQLVESAGGLVQAGGSLRLSCAASVITFVRYVMGWYRQAPGKEREFVARIRWRGGSTNYADSVKGRFTISRDNAKNTVYLQMNSLKPEDTAVYYCNAVRRASSGYDYWGQGTQVTVSS” the “polyreactivity (PSR sort gate)” value was “high polyreactivity”.

With “QVQLVESGGGLVQAGGSLRLTCAASGYTFYPYAMGWYRQAPGKERELVAAISWSGGSTYYADSVKGRFTISRDNAKNTVYLQMNSLKPEDTAVYYCNADSGWFGYDYWGKGTQVTVSS” the “polyreactivity (PSR sort gate)” value was “low polyreactivity”.

With “QVQLVESGGGLVQAGGSLRISCAASGSTFYVNAMGWYRQAPGKERELVAAIDGGDTYYADSVKGRFTISRDNAKNTVYLQMNSLKPEDTAVYYCAAESLPEISVGLGYWGQGTQVTVSS” the “polyreactivity (PSR sort gate)” value was “low polyreactivity”.
